Where a chain is given by its changes, count along the chain named.
B1: 2E2 mAb (antibody, from another filing, V domains shown)
VH: VQLKRASGPGLVAPSQSLSITCTVSGFSLTIYGAHWVRQPPGKGLEWLGVIWAGGSTNYNSALMSRLSISKDNSKSQVFLKINSLQTDDTALYYCARDGSSPYYYSMEYWGQGTSVTVSS
VL: QIILTQSPAIMSASPGEKVSITCSATSSVSYMHWFQQKPGTSPKLWIYSTSNLASGVPVRFSGSGSGTSYSLTISRMEAEDAATYYCQQRSSYPFTFGSGTKLEIKA
B2: monoclonal antibody 2C4 (antibody, IgG1, V domains shown)
VH: QVQLKESGPGLVAPSQSLSITCTVSGFSLIYGAHWVRQPPGKGLEWLGVIWAGGSTNYNSALMSRLSISKDNSKSQVFLKINSLQTDDTALYYCARDGSSPYYYSMEYWGQGTSVTVSS
VL: B1 VL with Q1E, A107R
notes: also called mAb 2C4

Key:
[1] = molecular target: SAF-2 (Siglec-8 / Siglec-8L) on the cell surface (human) (UniProt Q9NYZ4); experiment: cell-based or functional assay
[2] = molecular target: T1, SAF-2 polypeptide (extracellular domain of sialoadhesin factor-2, released from SAF-2/Fc by Factor Xa … (human, UniProt Q9NYZ4 17-363)); experiment: BIAcore SPR. The mAb was captured on a rabbit anti-mouse IgG Fc surface and SAF-2 was injected as analyte.
T1 construct: extracellular domain; The BIAcore analyte is printed only as 'SAF-2 (diluted in HBS buffer)'; Residues left over from the cleavage site are not described; also called Siglec-8
Procedure: (§1) Kinetic data was evaluated using relationships described previously (Karlsson, et al. (1991) J. Immunol. Meth. 145:229). The mAb (diluted in HBS buffer, 10 mM HEPES, 150 mM NaCl, 0.01% Tween-20, pH 7.4) was injected over a rabbit anti-mouse IgG Fe surface, followed by buffer flow, and the RU was recorded. SAF-2 (diluted in HBS buffer) was then injected for 180 seconds, followed by a buffer flow for 300 seconds, and the RU was recorded. The sensor chip surface was regenerated by an injection of 0.1 M phosphoric acid. The on-rates (Kₐ) and off-rates (Kd) of binding were calculated using BIAcore (Uppswala, Sweden) software.

[3] = molecular target: T1, SAF-2 polypeptide (extracellular domain …); experiment: BIAcore SPR. The mAb was captured on a rabbit anti-mouse IgG Fc surface and SAF-2 was injected as analyte. KD was calculated from the rates.
Procedure: as §1

T1 sequence (Q9NYZ4 17-363): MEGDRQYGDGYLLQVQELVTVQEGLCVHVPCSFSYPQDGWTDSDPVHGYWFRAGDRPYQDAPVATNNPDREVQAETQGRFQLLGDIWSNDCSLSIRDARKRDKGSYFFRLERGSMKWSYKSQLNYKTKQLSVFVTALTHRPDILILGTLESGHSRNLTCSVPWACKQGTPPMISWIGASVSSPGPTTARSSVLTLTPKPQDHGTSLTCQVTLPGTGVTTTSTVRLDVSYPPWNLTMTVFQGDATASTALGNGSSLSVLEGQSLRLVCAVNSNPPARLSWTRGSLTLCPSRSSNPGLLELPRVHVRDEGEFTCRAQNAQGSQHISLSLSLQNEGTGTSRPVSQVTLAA
Sequence of SAF-2 (Siglec-8 / Siglec-8L) on the cell surface (human) (Q9NYZ4 17-499): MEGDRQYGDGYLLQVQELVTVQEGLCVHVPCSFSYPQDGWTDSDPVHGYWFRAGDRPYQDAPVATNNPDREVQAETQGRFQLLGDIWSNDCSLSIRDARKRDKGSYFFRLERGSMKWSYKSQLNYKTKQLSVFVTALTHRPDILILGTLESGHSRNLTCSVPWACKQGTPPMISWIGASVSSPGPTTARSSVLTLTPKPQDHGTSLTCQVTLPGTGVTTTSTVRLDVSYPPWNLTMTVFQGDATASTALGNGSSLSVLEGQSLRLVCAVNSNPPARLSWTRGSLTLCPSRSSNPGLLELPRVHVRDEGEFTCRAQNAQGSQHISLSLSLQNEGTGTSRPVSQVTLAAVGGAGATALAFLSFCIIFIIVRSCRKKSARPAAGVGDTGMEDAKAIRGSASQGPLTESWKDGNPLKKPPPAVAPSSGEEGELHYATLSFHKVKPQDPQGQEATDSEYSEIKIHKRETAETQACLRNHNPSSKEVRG

| Binder | apoptosis (annexin-V) of IL-5-primed eosinophils, 2E2 mAb alone [1] | apoptosis (annexin-V) of unprimed eosinophils, 2E2 and secondary Ab [1] | eosinophil death at 48-72 h of culture (erythrosin-B dye exclusion), 2E2 plus secondary polyclonal Ab [1] | eosinophil death at 24 h of culture (erythrosin-B dye exclusion), 2E2 plus secondary polyclonal Ab [1] | koff [2] | kon [2] | Kd [3] |
| --- | --- | --- | --- | --- | --- | --- | --- |
| B1 | 69% | 72% | > 90% | 68% |  |  |  |
| B2 |  |  |  |  | 4.3e-05 s⁻¹ | 220000 M⁻¹ s⁻¹ | 0.2 nM |

Source: US20030092091A1 (GlaxoSmithKline, published 2003)
